Biological target: SH2 domain of SHC1 (human) (UniProt P29353)
Assay: peptide or protein array

Chain of UniProt P29353 (P29353 488-579): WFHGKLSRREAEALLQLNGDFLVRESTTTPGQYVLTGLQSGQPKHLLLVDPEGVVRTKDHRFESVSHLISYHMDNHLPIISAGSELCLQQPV

- Kd: < 200 nM
Substance: singly phosphorylated Tarp D peptide (18 amino acids around the ENIYE motif)
